The values that follow come from paper PMC4666351, “A novel transcriptional regulator of L-arabinose utilization in human gut bacteria”.

Substitutions are numbered along the chain they refer to.

Data set [1] has as its target BtAraR (BT0354), NrtR family transcription factor of Bacteroides thetaiotaomicron (B. thetaiotaomicron). The experiment in a line: crystal structure; four crystal forms of SeMet BtAraR: apo-1 (R3), apo-2 (I2_(1)3), complex with a 27-bp DNA duplex (P23), complex with L-arabinose (P2_(1)); data at 100 K.
For another data set, the target named is T1, BtAraR V92D (Bacteroides thetaiotaomicron (VPI-548 …, UniProt Q8AAV8 1-225, V92D)).
T1 sequence: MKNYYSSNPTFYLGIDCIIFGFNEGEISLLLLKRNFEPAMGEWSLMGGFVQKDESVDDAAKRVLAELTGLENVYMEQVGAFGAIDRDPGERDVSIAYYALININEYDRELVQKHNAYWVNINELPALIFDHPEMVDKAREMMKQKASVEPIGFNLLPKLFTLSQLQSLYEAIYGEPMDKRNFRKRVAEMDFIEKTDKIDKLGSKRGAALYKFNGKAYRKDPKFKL
Nature of the data set: EMSA; 1 uM protein; EMSA: 20 mM Tris-HCl pH 8.0, 150 mM KCl, 5 mM MgCl2, 1 mM DTT, 0.05% NP-40, 2.5% glycerol, 37 C, 30 min; DNA 0.2 nM (0.16 nM in Fig S4), protein 0.25-1 uM. The note with it: protein: recombinant; label: 5'-biotin on one strand; blunt. A general note: In EMSA bound probe runs differently from free probe, usually more slowly.

For a further data set, the target named is T2, BtAraR R34N (Bacteroides thetaiotaomicron (VPI-548 …, UniProt Q8AAV8 1-225, R34N)).
T2 sequence: T1 sequence with R34N, D92V
The experiment in a line: EMSA; 0.5 mM L-arabinose, 1 uM protein; EMSA: 20 mM Tris-HCl pH 8.0, 150 mM KCl, 5 mM MgCl2, 1 mM DTT, 0.05% NP-40, 2.5% glycerol, 37 C, 30 min; DNA 0.2 nM (0.16 nM in Fig S4), protein 0.25-1 uM. The note with it: protein: recombinant; chain copies: 2; label: 5'-biotin on one strand; blunt.

A further data set deals with T3, BtAraR F49Q (Bacteroides thetaiotaomicron (VPI-548 …, UniProt Q8AAV8 1-225, F49Q)).
T3 sequence: T1 sequence with F49Q, D92V
Described as above. The note with it: protein: recombinant; chain copies: 2; label: 5'-biotin on one strand; blunt.

On to “BtAraR (BT0354), NrtR family transcription factor of Bacteroides thetaiotaomicron (natural protein)”, for which the stoichiometry N – broadly, a count of units in the complex or per binding partner – in data set [1] turned out to be 2.

B1: BT0356 (araM) promoter 65-bp (dsDNA)
DNA 1: CCCCCATATAAGAGTGTATTTGATACACCAAACAAAAGTGTTACTTTTACACCCAAAATACCCCC
DNA 2: GGGGGTATTTTGGGTGTAAAAGTAACACTTTTGTTTGGTGTATCAAATACACTCTTATATGGGGG
Take B1: the binding result with BtAraR V92D was “no binding”; in the data set with BtAraR R34N, “binds”; with BtAraR F49Q, “binds”.
